Assay results from US6492139 (Genentech, dated 2002).

How the values were obtained:
[1] = target: T1, Flag tagged rSmo (rat Smoothened with C-terminal Flag epitope tag) (rat, UniProt P97698 33-793); assay: staining of transfected cells exposed to tagged ligand
T1 construct: Expressed transiently in COS-7 or 293 cells from pRK5

[2] = target: T2, dSmo (Drosophila Smoothened, epitope tagged) (Drosophila, UniProt P91682 32-1036); assay: as above
T2 construct: also called dro.smo
T2 sequence: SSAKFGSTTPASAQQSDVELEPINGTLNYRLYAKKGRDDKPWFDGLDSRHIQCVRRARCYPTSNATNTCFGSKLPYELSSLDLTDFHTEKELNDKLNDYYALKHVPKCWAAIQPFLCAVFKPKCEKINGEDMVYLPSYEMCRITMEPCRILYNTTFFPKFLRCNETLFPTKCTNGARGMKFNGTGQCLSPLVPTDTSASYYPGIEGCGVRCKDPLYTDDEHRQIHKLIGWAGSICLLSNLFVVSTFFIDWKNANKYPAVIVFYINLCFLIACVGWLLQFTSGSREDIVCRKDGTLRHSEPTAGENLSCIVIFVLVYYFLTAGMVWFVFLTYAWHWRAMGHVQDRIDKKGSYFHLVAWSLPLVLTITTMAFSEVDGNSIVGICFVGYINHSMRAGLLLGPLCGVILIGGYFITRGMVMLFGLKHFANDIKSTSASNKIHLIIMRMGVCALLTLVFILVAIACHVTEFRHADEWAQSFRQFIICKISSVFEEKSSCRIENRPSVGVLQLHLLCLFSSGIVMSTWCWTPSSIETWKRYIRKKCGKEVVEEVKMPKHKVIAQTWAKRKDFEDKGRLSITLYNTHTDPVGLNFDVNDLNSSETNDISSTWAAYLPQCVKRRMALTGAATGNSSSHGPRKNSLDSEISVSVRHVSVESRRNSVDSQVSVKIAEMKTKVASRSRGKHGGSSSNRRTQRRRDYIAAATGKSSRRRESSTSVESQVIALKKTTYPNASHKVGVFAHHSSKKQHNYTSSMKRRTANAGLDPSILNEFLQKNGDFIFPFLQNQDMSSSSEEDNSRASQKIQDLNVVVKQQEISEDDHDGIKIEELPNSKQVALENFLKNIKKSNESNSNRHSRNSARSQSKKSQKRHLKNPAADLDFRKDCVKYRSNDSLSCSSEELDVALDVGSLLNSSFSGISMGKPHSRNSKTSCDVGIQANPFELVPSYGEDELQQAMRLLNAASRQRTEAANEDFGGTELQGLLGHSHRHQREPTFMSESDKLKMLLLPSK

T1 sequence (P97698 33-793): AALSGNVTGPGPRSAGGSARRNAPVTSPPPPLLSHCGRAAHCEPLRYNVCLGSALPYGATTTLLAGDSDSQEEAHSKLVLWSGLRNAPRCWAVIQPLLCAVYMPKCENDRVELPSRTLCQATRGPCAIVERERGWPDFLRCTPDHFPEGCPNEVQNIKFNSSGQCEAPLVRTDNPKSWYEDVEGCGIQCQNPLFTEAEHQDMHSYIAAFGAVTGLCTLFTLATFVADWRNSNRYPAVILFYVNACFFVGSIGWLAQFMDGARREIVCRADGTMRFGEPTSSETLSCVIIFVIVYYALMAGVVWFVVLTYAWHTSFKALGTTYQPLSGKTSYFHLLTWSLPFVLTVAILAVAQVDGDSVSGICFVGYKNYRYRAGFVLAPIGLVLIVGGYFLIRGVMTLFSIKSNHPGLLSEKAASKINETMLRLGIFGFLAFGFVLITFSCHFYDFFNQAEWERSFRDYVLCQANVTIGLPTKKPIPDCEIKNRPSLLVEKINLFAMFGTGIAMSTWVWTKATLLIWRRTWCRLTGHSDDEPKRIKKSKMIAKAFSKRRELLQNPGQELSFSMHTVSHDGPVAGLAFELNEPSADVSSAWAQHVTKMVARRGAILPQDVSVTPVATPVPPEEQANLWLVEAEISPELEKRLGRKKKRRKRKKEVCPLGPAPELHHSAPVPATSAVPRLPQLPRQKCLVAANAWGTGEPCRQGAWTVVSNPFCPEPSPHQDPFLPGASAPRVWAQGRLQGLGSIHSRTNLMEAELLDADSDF

B1: epitope tagged Desert HH (ligand, not shown: small tags and cut ends)
chain: not shown
B1: no binding [1]; no binding [2].
